Patent US20260356937 (published 2026)

What was measured:
[1] = biological target: ILT4 (CHO-S/ILT4 cells) (human); assay: FACS
[2] = biological target: ILT4 (CHO-S/ILT4 cells) (human); assay: FACS, assay 2
[3] = biological target: ILT4 (CHO-S/ILT4 cells) (human); assay: FACS, assay 4
[4] = biological target: ILT4 (CHO-S/ILT4 cells) (human); assay: FACS, assay 3

Chain of ILT4 (CHO-S/ILT4 cells) (human) (chain, as listed by the source): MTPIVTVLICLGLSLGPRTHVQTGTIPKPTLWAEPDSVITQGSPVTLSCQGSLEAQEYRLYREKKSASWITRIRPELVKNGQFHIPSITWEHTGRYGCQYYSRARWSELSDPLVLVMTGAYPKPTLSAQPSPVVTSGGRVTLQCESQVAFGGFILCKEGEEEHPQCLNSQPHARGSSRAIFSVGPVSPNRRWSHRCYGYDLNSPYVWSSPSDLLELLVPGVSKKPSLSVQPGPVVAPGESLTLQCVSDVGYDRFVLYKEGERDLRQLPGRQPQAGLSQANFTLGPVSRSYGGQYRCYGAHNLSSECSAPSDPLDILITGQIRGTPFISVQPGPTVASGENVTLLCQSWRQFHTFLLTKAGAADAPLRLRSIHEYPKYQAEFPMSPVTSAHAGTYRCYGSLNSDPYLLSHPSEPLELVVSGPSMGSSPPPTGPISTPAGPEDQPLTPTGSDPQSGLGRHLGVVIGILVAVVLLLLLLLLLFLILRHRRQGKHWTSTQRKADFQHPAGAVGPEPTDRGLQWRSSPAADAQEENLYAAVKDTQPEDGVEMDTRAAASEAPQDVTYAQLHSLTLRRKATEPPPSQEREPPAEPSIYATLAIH

EC50 [1]	EC50 [2]	EC50 [3]	EC50 [4]	Binder
0.0163 µg/mL				P2m (antibody, V domains shown) VH: QVQLVQSGAEVKKPGSSVKVSCKASGYTFTSYDISWVRQAPGQGLEWMGGIIPIFGTANYAQKFQGRVTITADESTSTAYMELSSLRSEDTAVYYCTAGIFLATAYWGQGTLVTVSS VL: DIQMTQSPSSMSASVGDRVTISCQASQDIQNYLNWYQQRPGQAPKLLIYDASTLETGVPSRFSGSGSGTYFTLTISSLQPEDVATYYCQQYENVPITFGQGTRLEIK
0.045 µg/mL				huP2-G9 (antibody, V domains shown) VH: EVQLQESGPGLVKPSQTLSLTCTVSGSSITSGYYWNWIRQHPGKGLEWIGYLSYDGSNNYNPSLKNLVTISRDTSKNQFSLKLSSVTAADTAVYYCAREGAHYSGTLSWFAYWGQGTLVTVSS VL: DIQMTQSPSSLSASVGDRVTITCRASENIYSNLAWYQQKPGKSPKLLVYAATNLADGVPSRFSGSGSGTDYTLTISSLQPEDFATYYCQHFWDTPYTFGGGTKVEIK
0.0368 µg/mL				huP2-C6 (antibody, V domains shown) VH: EVQLVQSGAEVKKPGASVKVSCKASGYTFTDYYIHWVRQAPGQGLEWMGYIYPDTGYSGYNQKFKGRVTMTVDKSTSTAYMELRSLRSDDTAVYYCTRRGDYSGVHFDYWGQGTTVTVSS VL: DIVLTQSPDSLAVSLGERATINCRASESVNNYGVGFLHWYQQKPGQPPKLLIYRASTLESGIPDRFSGSGSGTDFTLTISSLQAEDVAVYYCQHSYKDPPWTFGGGTKVEIK
	0.0415 µg/mL	0.0139 µg/mL	0.301 µg/mL	MK (antibody, V domains shown) VH: EVQLQQWGAGLLKPSETLSLTCAVYGGSFSGYYWSWIRQPPGKGLEWIGEINHAGSTNYNPSLKSRVTISVDTSKNQFSLKLSSVTAADTAVYYCARLPTRWVTTRYFDLWGRGTLVTVSS VL: ESVLTQPPSVSGAPGQRVTISCTGSSSNIGAGYDVHWYQQLPGTAPKLLIYGDSNRPSGVPDRFSVSKSGASASLAITGLQAEDEADYYCQSFDNSLSAYVFGGGTQLTVLG
